Reference: PMC7566454, “Sorcin is an early marker of neurodegeneration, Ca^2+ dysregulation and endoplasmic reticulum stress associated to neurodegenerative diseases” (Cell Death & Disease, 2020)
Values belong to the molecule of their own block, whether it stands above or below them.

Legend:
human Sorcin [1] = biological target: T1, human Sorcin (human, UniProt P30626 1-198); experiment: SPR; FastStep (SensiQ Pioneer); human Sorcin amine-coupled to a COOH5 chip (2000 RU); peptides 1.56-100 μM; 20 mM Hepes pH 7.4, 150 mM NaCl, 0.005% P20, 100 μM CaCl2; best fits with 2 sites
T1 construct: Sorcin, human
T1 sequence (looked up): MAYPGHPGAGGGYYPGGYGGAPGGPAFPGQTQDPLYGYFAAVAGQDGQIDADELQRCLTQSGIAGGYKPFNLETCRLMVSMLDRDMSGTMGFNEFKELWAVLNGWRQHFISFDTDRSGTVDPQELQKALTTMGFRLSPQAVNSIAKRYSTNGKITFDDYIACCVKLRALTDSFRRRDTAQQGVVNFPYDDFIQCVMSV

human Sorcin [2] = biological target: T1, human Sorcin; experiment: SPR; OneStep (SensiQ Pioneer); GST-Sigma-1 receptor (1-138) amine-coupled to a COOH5 chip (125 RU), signal on GST (80 RU) subtracted; Sorcin up to 5 μM; 20 mM Hepes pH 7.4, 150 mM NaCl, 0.005% P20 with CaCl2 (500 μM in the results, 100 μM in the methods); fit with 1 site; conditions: both partners purified
human Sorcin [3] = biological target: T1, human Sorcin; experiment: SPR; OneStep as a6 but in buffer with 1 mM EDTA (HBS-PE); conditions: both partners purified

Kd (human Sorcin [1]): 120 nM
Molecule: RyR2 peptide corresponding to calmodulin-binding site CaMBD2

Kd (human Sorcin [1]; both partners purified): 480 nM
B1: RyR2 peptide corresponding to calmodulin-binding site CaMBD3 (peptide)
peptide: ALRYNVLTLVRMLSLKSLKKQMKRMKKMTVK
notes: source: synthetic peptide (Biomatik, purity > 90%)

More lines, now with the values behind:

B2: RyR2 peptide corresponding to calmodulin-binding site CaMBD1 (peptide)
peptide: FRYNEVMQALNMSAALTARKTREFR
notes: as for B1
Kd (human Sorcin [1]; both partners purified): > 10000 nM

B3: GST-Sigma-1 receptor (cytosolic domain, residues 1-138) (domain or fragment, UniProt Q99720 1-138, looked up)
chain: MQWAVGRRWAWAALLLAVAAVLTQVVWLWLGTQSFVFQREEIAQLARQYAGLDHELAFSRLIVELRRLHPGHVLPDEELQWVFVNAGGWMGAMCLLHASLSEYVLLFGTALGSRGHSGRYWAEISDTIISGTFHQWRE
notes: Sigma-1 receptor, 'cytosolic domain' residues 1-138, cloned in frame with GST in pGEX4T1; pGEX4T1 puts GST at the N-terminus (surmised); also called Sigma-1 receptor (1–138); source: E. coli BL21(DE3), purified (GSTrap HP)
Kd (human Sorcin [2]): 720 nM
Kd (human Sorcin [3]): 12 µM
